Test results from US9290544B2, “Methods for making and using molecular switches involving circular permutation” (priority 2004, dated 2016).
Like-named read-outs stand apart in the source and are kept apart here.

What was measured:
[1] = Magnitude of switching in soluble fraction of cell lysates, Libraries 2-7 (FIG. 13); assay type: biochemical; settings: room temperature, 50 μM nitrocefin
Experimental: Libraries were plated on LB plates containing […] at the indicated concentrations of ampicillin and incubated at 37° C. overnight. From these plates, colonies were picked to inoculate 1 ml LB media (supplemented with 50 μg/ml chloramphenicol and 1 mM IPTG) in 96-well format. Lysates from these cultures were assayed for nitrocefin hydrolysis activity in the presence and absence of maltose as described above.
Libraries 2-7 were plated on different levels of ampicillin in the presence of 50 mM maltose. Colonies that grew were used to inoculate 96-well plates. The resulting cultures were lysed and assayed at room temperature for nitrocefin hydrolysis in the presence and absence of maltose in 96-well format.
FIG. 13 is a schematic depiction of the library construction schemes for Libraries 2-7, and of particular switches identified from these libraries. The arrowheads indicate the sites of insertion. Multiple arrowheads on one gene indicate random insertion sites. Dashed arrows indicate a particular switch on which successive libraries were based. The magnitude of switching was determined on the soluble fraction of cell lysates at room temperature using 50 μM nitrocefin. For switches with a rate increase in the presence of maltose, the ratio is of “with maltose” to “without maltose” (indicated by no sign in front of the value). […]

[2] = Nitrocefin hydrolysis in soluble fraction of cell lysates with and without 5 mM maltose (screen and confirmation of positives); assay type: biochemical; settings: 50 μM nitrocefin; 5 mM maltose; 100 mM sodium phosphate buffer, pH 7.0
Experimental: Next, 50 μl of PopCulture (Novagen) and 2.5 unit of benzonase nuclease was added to each well and incubated for 15 minutes at room temperature to lyse the cells. The cells debris and any unlysed cells were pelleted by centrifugation and supernatant was recovered. In 96-well format, 60 μl of lysate was assayed for hydrolysis of nitrocefin (50 μM) by monitoring the increase in absorbance at 490 nm in 100 mM sodium phosphate buffer, pH 7.0, both with and without 5 mM maltose. Any lysate in which there was a difference in rate of more than 2-fold (between with and without maltose) was selected for retesting and further investigation.
Library members identified as having more than 200% switching activity in the 96-well plate screen were grown 24-48 hours in 100 ml LB media in 500 ml shaker flasks at 22° C. without IPTG. The cells were pelleted and resuspended in 8 ml assay buffer (100 mM sodium phosphate buffer, pH 7.0) and lysed by French press. The soluble fraction of this lysate was assayed for hydrolysis of nitrocefin (50 μM) at 22° C. as previously described (Guntas and Ostermeier 2004) both with and without 5 mM maltose. Initial rates were determined from absorbance at 486 nm monitored as a function of time. The enzyme was incubated at the assay temperature in the absence or presence of 5 mM maltose for four minutes prior to performing the assay. All assays contained 100 mM sodium phosphate buffer, pH 7.0. Library members for which there was a difference in the initial rate of more than about 2-fold were sequenced (Table 4). Switches RG-5-169 and RG-200-13 were also assayed in the presence of 5 mM sucrose or 5 mM glucose.

[3] = Steady state kinetics of nitrocefin hydrolysis, purified RG13 proteins, 25° C.; assay type: biochemical; settings: for Km / kcat: nitrocefin
Experimental: All kinetic assays were performed at 25° C. in the presence of 100 mM sodium phosphate buffer, pH 7.0. Ten μl of enzyme stock was added to 1.59 ml buffer (containing the saccharide, if desired). After incubation for 30 seconds, 0.4 ml of 5× substrate was added and the absorbance at the appropriate wavelength was recorded using the Cary50 UV-VIS spectrophotometer. The wavelength monitored was 486 nm, 240 nm, and 232 nm for nitrocefin, carbenicillin, and ampicillin respectively. From the initial rate of reaction the kinetic constants were determined using Eadie-Hofstee plots. […] The rate data was consistent with a small hysteretic effect (Brennan et al. 1994) and not substrate inhibition as preincubation of the enzyme with the substrate for one minute prevented the lag from occurring upon addition of more substrate. Therefore, the steady state parameters for nitrocefin hydrolysis in the absence of maltose were determined by measuring the rate at 1-2 minutes (well after the lag) and correcting the substrate concentration by subtracting the amount of substrate hydrolyzed. In all cases the extent of reaction at the point the rate was measured was less than 25%. In the presence of maltose, no lag was observed.

[4] = Apparent dissociation constant for maltose from initial rate of nitrocefin hydrolysis; assay type: binding; settings: 25° C.
Experimental: [formula] where ΔF is the change in fluorescence intensity, ΔFmax is the difference in fluorescence between no maltose and saturating amounts of maltose and [L] is the maltose concentration. The fluorescence quenching of RG13(1329W/A96W) upon addition of maltose was insufficient to accurately determine a Kd by this method. The dissociation constant for maltose and RG13(I329W) in the presence of saturating carbenicillin (2 mM) was determined by measuring the initial rate of carbenicillin hydrolysis as a function of maltose concentration. The apparent dissociation constant in the presence of subsaturating concentrations of nitrocefin (25 μM) for all three proteins was determined by measuring the initial rate of nitrocefin hydrolysis as a function of maltose concentration.

[5] = cited from earlier work
[6] = test system: DH5α-E cells; experiment: In vivo characterization: MIC of ampicillin for DH5α-E cells expressing the protein; assay type: cell-based, E. coli; settings: LB plates, 37° C., 20 hours
Experimental: Overnight inoculums of DH5α-E cells expressing RG13, BLA or BLA(W208G) were diluted into LB media and plated on LB plates, either in the absence or presence of 50 μM maltose, in the presence of increasing amounts of ampicillin. Ampicillin was present in the plates at the following concentrations: 0, 2, 4, 8, 16, 32, 64, 128, 256, 512, and 2000 μg/ml. Cells were plated at approximately 1000 CFU (no antibiotic) per plate. The plates were incubated at 37° C. for 20 hours. The minimum inhibitory concentration (MIC) was defined as the lowest ampicillin concentration at which no colonies were present, or that at which the number of colonies present was <1% of the number of colonies at the next lowest level of ampicillin.

[7] = effector maltose 5 mM (saturating)
[8] = effector maltose 5 mM (saturating), 25° C.

Q: For “IFG-5-277: MBP[1-165]-BLA[218-286]-GSGGG-BLA[24-215]-MBP[164-370]; maltose is a negative effector; SEQ ID NO: 69”, which “Effect of maltose on catalytic activity (magnitude of switching)” value [1] is on record?
A: negative effector

Q: What about the “Switching effect: percent change in velocity of nitrocefin hydrolysis in the presence of 5 mM maltose” value (from here on “Switching effect: percent change”) [2] of the same molecule?
A: −250%

Q: With “IFD-5-7: MBP[1-165]-BLA[110-286]-DKS-BLA[24-107]-MBP[164-370]; SEQ ID NO: 67” as the molecule, how does the “Switching effect: percent change” value [2] read?
A: +96%

Q: For “IFD-5-15: MBP[1-165]-BLA[168-286]-DKS-BLA[24-170]-MBP[164-370]; SEQ ID NO: 71”, which “Switching effect: percent change” value [2] is on record?
A: +97%

Q: For “RG13 I329W/A96W: RG13 with MBP hinge mutations I329W and A96W; SEQ ID NO: 65”, which “Km Ratio (with effector)/(without effector)” value ([3]; effector maltose 5 mM) is on record?
A: 0.23 ± 0.04

Q: What about the “kcat Ratio (with effector)/(without effector)” value [3, 7] of the same molecule?
A: 1.5 ± 0.2

Q: What about the “kcat/Km Ratio (with effector)/(without effector)” value [3, 7] of the same molecule?
A: 6.4 ± 1.3

Q: What about the Km [3, 8] of the same molecule?
A: 60 ± 4 µM

Q: And the kcat [3, 8]?
A: 530 ± 20 s⁻¹

Q: What about the Km ([3]; no effector, pH 7.0, 25° C.) of the same molecule?
A: 260 ± 40 µM

Q: What about the kcat ([3]; no effector, pH 7.0, 25° C.) of the same molecule?
A: 360 ± 40 s⁻¹

Q: What about the Kd [4] of the same molecule?
A: 170 ± 20 nM

B1: BLA: penicillin-hydrolyzing enzyme TEM1 β-lactamase, parent enzyme of the switches (protein, UniProt P62593 24-286, looked up)
Beta-lactamase TEM: HPETLVKVKDAEDQLGARVGYIELDLNSGKILESFRPEERFPMMSTFKVLLCGAVLSRVDAGQEQLGRRIHYSQNDLVEYSPVTEKHLTDGMTVRELCSAAITMSDNTAANLLLTTIGGPKELTAFLHNMGDHVTRLDRWEPELNEAIPNDERDTTMPAAMATTLRKLLTGELLTLASRQQLIDWMEADKVAGPLLRSALPAGWFIADKSGAGERGSRGIIAALGPDGKPSRIVVIYTTGSQATMDERNRQIAEIGASLIKHW
Q: What does the source list for B1?
A: kcat ([5]; previously reported for BLA at 24° C. (Sigal et al. 1984)): 900 s⁻¹; Km ([5]; previously reported for BLA at 24° C. (Sigal et al. 1984), read-out: Km): 110 µM; kcat ([5]; previously reported, 30° C. (Raquet et al. 1994)): 930 s⁻¹; Km ([5]; previously reported, 30° C. (Raquet et al. 1994), read-out: Km): 52 µM; Km ([5]; substrate ampicillin (Raquet et al. 1994), read-out: Km for TEM-1 β-lactamase): 32 µM; Km ([5]; substrate benzylpenicillin (Raquet et al. 1994), read-out: Km for TEM-1 β-lactamase): 19 µM; Km ([5]; substrate cephalothin (Raquet et al. 1994), read-out: Km for TEM-1 β-lactamase): 246 µM; Km ([5]; substrate oxacillin (Raquet et al. 1994), read-out: Km for TEM-1 β-lactamase): 3 µM; Effect of maltose on wild type BLA enzymatic activity ([5]; with or without an equimolar amount of MBP (Guntas et al. 2004)): no effect; Minimum Inhibitory Concentration of Ampicillin ([6]; 50 μM maltose): ≧2000 μg/ml; Minimum Inhibitory Concentration of Ampicillin ([6]; No maltose): ≧2000 μg/ml
